Experimental data from patent US20100015139A1.

Legend:
human factor B (human) [1] = target: human factor B (human) (UniProt P00751); assay: cell-based or functional assay
[2] = target: Ba protein (Ba fragment of factor B) (human) (UniProt P00751); assay: ELISA; antibody titrated on Ba-coated wells
human factor B (human) [3] = target: human factor B (human) (UniProt P00751); assay: competition ELISA; Anti-Ba varied, factor B binding to C3b-coated plates
human factor B (human) [4] = target: human factor B (human) (UniProt P00751); assay: competition ELISA; Anti-Ba varied, factor B binding to properdin-bound C3b on plates
human factor B (human) [5] = target: human factor B (human) (UniProt P00751); assay: competition ELISA; Anti-Ba varied, factor B binding to C3b or properdin-bound C3b; range told for both formats

Chain of human factor B (human) (P00751 other isoform, or with tags, fused parts or gaps limits assumed): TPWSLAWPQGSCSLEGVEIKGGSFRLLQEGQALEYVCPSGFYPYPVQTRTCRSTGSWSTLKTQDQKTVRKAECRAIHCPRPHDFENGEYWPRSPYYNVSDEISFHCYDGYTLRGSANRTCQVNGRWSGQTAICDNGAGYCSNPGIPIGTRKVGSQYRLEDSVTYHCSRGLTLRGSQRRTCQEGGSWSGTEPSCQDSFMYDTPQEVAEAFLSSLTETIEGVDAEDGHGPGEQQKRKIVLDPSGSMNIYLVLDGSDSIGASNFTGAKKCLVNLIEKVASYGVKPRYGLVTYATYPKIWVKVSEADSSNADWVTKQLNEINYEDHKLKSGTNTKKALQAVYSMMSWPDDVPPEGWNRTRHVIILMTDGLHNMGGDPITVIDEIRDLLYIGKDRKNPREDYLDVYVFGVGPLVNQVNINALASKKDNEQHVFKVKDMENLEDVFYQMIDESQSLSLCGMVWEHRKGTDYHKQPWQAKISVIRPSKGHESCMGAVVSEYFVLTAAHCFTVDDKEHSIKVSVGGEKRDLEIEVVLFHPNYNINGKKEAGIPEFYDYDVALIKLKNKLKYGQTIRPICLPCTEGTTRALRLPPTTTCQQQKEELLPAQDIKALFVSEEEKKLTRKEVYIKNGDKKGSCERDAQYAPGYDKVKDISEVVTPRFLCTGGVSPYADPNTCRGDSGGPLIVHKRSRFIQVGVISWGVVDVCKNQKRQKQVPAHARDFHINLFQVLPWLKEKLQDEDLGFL
Chain of Ba protein (Ba fragment of factor B) (human) (P00751 other isoform, or with tags, fused parts or gaps limits assumed): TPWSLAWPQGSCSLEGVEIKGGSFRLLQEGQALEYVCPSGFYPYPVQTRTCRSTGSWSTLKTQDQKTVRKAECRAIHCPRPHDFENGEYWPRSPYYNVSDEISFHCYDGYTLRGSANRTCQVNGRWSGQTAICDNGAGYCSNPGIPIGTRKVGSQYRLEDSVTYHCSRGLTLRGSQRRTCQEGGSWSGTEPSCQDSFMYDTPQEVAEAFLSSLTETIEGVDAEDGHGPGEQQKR

anti-factor Ba monoclonal antibody (Quidel A225, murine)
Inhibition of C5b-9 formation in normal human serum on LPS coated plates (AP dependent C3-convertase formation) (human factor B (human) [1]): 527 nM
Inhibition of alternative pathway-dependent hemolysis of rabbit erythrocytes in 10% normal human serum (human factor B (human) [1]): 125 µg/mL
Kd [2]: 9.65 nM
IC50 (human factor B (human) [3]): 556 nM
IC50 (human factor B (human) [4]): 234 nM
IC50 (human factor B (human) [5]): 200 to 500 nM
